Data published in the Human Domainome abundance scans (Beltran et al. 2025).
± gives the uncertainty stated by the source.

B1: Pyruvate dehydrogenase protein X component, mitochondrial, residues 181 to 227; numbered along this chain, O00330 (parent)
chain: RFRLSPAARNILEKHSLDASQGTATGPRGIFTKEDALKLVQLKQTGK

Variants of: B1
Assay: abundance fitness (aPCA) (normalised: wild type 0, dead -1); higher = more abundant; growth selection in yeast, the domain comes from the species named
Details: Homo sapiens

Compared with S16A, S16H is higher in abundance fitness: -0.186 ± 0.063 for the first, -0.026 ± 0.079 for the second.

Compared with S16F, S16M is lower in abundance fitness: -0.416 ± 0.084 for the first, -0.708 ± 0.089 for the second.

Compared with S16W, S16G is higher in abundance fitness: -0.699 ± 0.051 for the first, 0.244 ± 0.043 for the second.

Going from S16C to R3Y, the abundance fitness rises from -0.215 ± 0.08 to 0.109 ± 0.077.

Compared with R3K, R3H is higher in abundance fitness: -0.16 ± 0.078 for the first, 0.04 ± 0.11 for the second.

R3C and R3S are within error of each other in abundance fitness: -0.064 ± 0.069 for the first, -0.14 ± 0.055 for the second.

Compared with R3F, R3N is higher in abundance fitness: 0.144 ± 0.06 for the first, 0.31 ± 0.1 for the second.

First: R3M
Second: A8M
The abundance fitness of the first is higher: -0.091 ± 0.077 for the first, -0.29 ± 0.1 for the second.

Going from A8H to A8E, the abundance fitness rises from -0.564 ± 0.076 to -0.183 ± 0.055.

Compared with A8R, A8L is lower in abundance fitness: -0.391 ± 0.054 for the first, -1.02 ± 0.077 for the second.

First: A8T
Second: A8Y
The abundance fitness of the first is higher: -0.387 ± 0.06 for the first, -0.902 ± 0.063 for the second.

Compared with D35A, D35F is lower in abundance fitness: -0.637 ± 0.051 for the first, -1.25 ± 0.46 for the second.

D35Q and D35Y are within error of each other in abundance fitness: -0.818 ± 0.1 for the first, -0.865 ± 0.19 for the second.

D35I and D35W are within error of each other in abundance fitness: -0.956 ± 0.47 for the first, -0.814 ± 0.083 for the second.

Compared with P27S, P27N is lower in abundance fitness: -0.213 ± 0.043 for the first, -0.426 ± 0.059 for the second.

Going from P27E to P27V, the abundance fitness falls from -0.131 ± 0.059 to -0.515 ± 0.058.

P27C and P27Q are within error of each other in abundance fitness: -0.323 ± 0.067 for the first, -0.221 ± 0.056 for the second.

Compared with K47Q, K47C is lower in abundance fitness: 0.539 ± 0.26 for the first, -0.003 ± 0.25 for the second.

K47T and K47D are within error of each other in abundance fitness: -0.774 ± 0.48 for the first, -0.532 ± 0.43 for the second.

Compared with F2A, F2W is lower in abundance fitness: -0.536 ± 0.063 for the first, -1.25 ± 0.11 for the second.

First: F2H
Second: F2M
The abundance fitness of the first is lower: -0.878 ± 0.16 for the first, 0.137 ± 0.081 for the second.

Going from F2Y to F2E, the abundance fitness falls from -0.015 ± 0.083 to -0.316 ± 0.059.

First: K43V
Second: K43G
The abundance fitness of the first is lower: -0.28 ± 0.057 for the first, -0.141 ± 0.054 for the second.

Compared with K43L, K43E is higher in abundance fitness: -0.575 ± 0.059 for the first, -0.395 ± 0.1 for the second.

Compared with K43R, K43Q is higher in abundance fitness: -0.245 ± 0.045 for the first, -0.057 ± 0.05 for the second.

First: K43C
Second: I30T
The abundance fitness of the first is lower: -0.267 ± 0.15 for the first, 0.068 ± 0.083 for the second.

Compared with I30A, I30H is lower in abundance fitness: -0.105 ± 0.054 for the first, -0.359 ± 0.15 for the second.

I30P and I30G are within error of each other in abundance fitness: -0.363 ± 0.08 for the first, -0.271 ± 0.047 for the second.

Compared with D18N, D18P is lower in abundance fitness: 0.028 ± 0.098 for the first, -0.815 ± 0.14 for the second.

Going from D18M to D18G, the abundance fitness falls from -0.394 ± 0.058 to -0.598 ± 0.05.

Compared with G46H, G46P is lower in abundance fitness: 0.38 ± 0.14 for the first, -0.469 ± 0.13 for the second.

G46D and G46V are within error of each other in abundance fitness: -0.343 ± 0.15 for the first, -0.207 ± 0.069 for the second.

G46T and L39N are within error of each other in abundance fitness: -0.037 ± 0.059 for the first, 0.065 ± 0.094 for the second.

L39H and L39K are within error of each other in abundance fitness: -0.271 ± 0.066 for the first, -0.545 ± 0.21 for the second.

First: L39V
Second: L39D
The abundance fitness of the first is lower: -0.315 ± 0.074 for the first, -0.121 ± 0.1 for the second.

L39P and L39Q are within error of each other in abundance fitness: -0.348 ± 0.086 for the first, -0.619 ± 0.21 for the second.

L4C and L4D are within error of each other in abundance fitness: -0.086 ± 0.064 for the first, 0.005 ± 0.097 for the second.

First: L4M
Second: L4P
The abundance fitness of the first is higher: -0.008 ± 0.062 for the first, -0.333 ± 0.051 for the second.

L4F and L4K are within error of each other in abundance fitness: -0.284 ± 0.14 for the first, -0.09 ± 0.082 for the second.

Compared with L4S, S5C is lower in abundance fitness: -0.167 ± 0.062 for the first, -0.608 ± 0.11 for the second.

Going from S5I to S5V, the abundance fitness falls from -0.135 ± 0.19 to -0.621 ± 0.048.

S5G gave an abundance fitness of -0.564 ± 0.049.
